Consider two molecules from article PMC8456507.

For the data set, the target named is rYY1 (UniProt Q00899 1-414). The experiment in a line: pull-down.
Sequence of rYY1 (Q00899 whole entry): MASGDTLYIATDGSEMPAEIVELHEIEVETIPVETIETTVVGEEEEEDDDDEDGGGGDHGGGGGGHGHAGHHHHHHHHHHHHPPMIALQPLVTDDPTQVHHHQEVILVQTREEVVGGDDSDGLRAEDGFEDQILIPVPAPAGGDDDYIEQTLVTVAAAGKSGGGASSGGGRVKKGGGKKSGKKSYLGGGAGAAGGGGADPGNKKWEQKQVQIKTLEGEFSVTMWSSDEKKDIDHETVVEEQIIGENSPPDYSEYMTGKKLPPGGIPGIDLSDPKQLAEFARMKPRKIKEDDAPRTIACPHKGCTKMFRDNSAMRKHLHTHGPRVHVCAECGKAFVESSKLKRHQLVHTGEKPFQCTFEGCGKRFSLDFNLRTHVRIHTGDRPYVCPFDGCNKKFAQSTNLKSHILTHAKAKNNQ

B1: NCRm (dsDNA)
DNA 1: AGCTTAAGTAATACGGCTATGCAAGGCA
DNA 2: TGCCTTGCATAGCCGTATTACTTAAGCT
Regarding B1, the binding result is recorded as “no binding”.

B2: NCR (dsDNA)
DNA 1: AGCTTAAGTAACGCCATTTTGCAAGGCA
DNA 2: TGCCTTGCAAAATGGCGTTACTTAAGCT
As to B2, the binding result is “binds”.
